Decrease in signal of the precursor PfHsp60 spot in the PfHsp60 immunoprecipitate of 35S-labelled parasites treated with 5 uM Geldanamycin against DMSO (2DGE, phosphorimaging) data for 1 substance are collected here from PMC4552884.

The target of the assay is PfHsp90 (Plasmodium falciparum (endogenous in strain 3D7)) (UniProt Q8IC05).

precursor PfHsp60 (natural protein): the decrease in signal of the precursor PfHsp60 spot in the PfHsp60 immunoprecipitate of 35S-labelled parasites treated with 5 uM Geldanamycin against DMSO (2DGE, phosphorimaging) came to 80%.
